# Assay results reported in patent US20060147922A1 (published 2006).
# T1: EDDF2, central domain of EDD (aa 889-1877) (human, UniProt O95071 889-1877)
# T1 construct: In vitro translated, 35S-labelled; also called central third; central region of EDD
# T1 sequence: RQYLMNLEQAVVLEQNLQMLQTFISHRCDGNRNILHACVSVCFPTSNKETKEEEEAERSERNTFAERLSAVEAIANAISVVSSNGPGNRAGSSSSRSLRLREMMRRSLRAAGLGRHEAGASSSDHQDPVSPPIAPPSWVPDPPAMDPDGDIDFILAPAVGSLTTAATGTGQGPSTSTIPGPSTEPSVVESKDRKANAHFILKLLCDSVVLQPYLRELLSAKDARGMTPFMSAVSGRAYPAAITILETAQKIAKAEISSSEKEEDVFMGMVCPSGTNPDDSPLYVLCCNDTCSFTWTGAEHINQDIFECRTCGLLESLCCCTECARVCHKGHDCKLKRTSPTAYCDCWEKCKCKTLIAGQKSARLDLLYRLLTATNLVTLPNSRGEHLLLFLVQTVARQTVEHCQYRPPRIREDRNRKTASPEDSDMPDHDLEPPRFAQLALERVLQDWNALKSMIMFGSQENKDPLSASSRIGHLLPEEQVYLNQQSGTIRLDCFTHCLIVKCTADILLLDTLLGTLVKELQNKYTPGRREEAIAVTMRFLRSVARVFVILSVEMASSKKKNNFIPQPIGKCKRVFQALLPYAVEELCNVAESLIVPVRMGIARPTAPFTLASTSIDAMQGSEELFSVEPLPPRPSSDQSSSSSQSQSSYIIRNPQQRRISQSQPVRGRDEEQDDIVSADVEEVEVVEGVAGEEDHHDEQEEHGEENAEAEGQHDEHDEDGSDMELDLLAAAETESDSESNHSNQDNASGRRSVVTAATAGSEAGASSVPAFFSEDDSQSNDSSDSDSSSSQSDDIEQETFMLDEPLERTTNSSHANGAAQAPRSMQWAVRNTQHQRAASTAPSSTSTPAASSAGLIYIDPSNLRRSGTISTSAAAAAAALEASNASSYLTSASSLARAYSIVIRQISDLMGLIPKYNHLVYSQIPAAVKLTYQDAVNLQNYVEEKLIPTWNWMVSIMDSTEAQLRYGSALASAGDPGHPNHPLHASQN
# T2: EDDF3, carboxy domain of EDD (aa 1877-2799) (human, UniProt O95071 1877-2799)
# T2 construct: In vitro translated, 35S-labelled; also called carboxy third; carboxy terminal region of EDD
# T2 sequence: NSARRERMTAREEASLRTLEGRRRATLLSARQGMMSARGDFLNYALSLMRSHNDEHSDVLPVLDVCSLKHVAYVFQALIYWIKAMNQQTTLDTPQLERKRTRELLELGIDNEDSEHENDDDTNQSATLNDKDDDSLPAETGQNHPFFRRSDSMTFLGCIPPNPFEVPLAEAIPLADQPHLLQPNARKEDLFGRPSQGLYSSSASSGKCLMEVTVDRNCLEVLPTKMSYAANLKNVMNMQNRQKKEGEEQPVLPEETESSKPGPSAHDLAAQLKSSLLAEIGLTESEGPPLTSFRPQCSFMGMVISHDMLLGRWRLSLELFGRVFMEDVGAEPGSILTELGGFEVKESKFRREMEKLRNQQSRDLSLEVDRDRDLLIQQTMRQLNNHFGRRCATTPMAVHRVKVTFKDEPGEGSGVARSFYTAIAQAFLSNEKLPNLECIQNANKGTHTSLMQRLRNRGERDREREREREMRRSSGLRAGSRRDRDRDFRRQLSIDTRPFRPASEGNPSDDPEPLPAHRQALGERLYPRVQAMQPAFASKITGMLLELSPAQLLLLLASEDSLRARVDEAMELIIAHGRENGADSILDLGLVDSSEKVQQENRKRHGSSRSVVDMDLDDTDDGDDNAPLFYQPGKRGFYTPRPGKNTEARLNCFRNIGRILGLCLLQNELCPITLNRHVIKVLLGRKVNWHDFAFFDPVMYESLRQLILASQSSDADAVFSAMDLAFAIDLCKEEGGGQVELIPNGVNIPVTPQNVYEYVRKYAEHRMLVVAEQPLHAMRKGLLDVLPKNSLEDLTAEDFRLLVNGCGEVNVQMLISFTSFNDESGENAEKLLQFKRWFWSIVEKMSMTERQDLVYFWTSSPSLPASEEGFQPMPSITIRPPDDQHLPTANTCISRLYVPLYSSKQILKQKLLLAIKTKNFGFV
# Legend:
# [1] = target: T1, EDDF2, central domain of EDD (aa …); assay: GSTchk2-N pull-down of IVT EDD deletion mutants
# [2] = target: T2, EDDF3, carboxy domain of EDD (aa …); assay: GSTchk2-N pull-down of IVT EDD deletion mutants
binder,measurement,setting,value
"GSTchk2-N (GST fused to chk2 aa 1-225) (other, contains the SQ/TQ and FHA domains; also called GSTCHK2-N (WT); chk2 N-terminus; not shown: glutathione S-transferase (GST) fusion partner) MSRESDVEAQQSHGSSACSQPHGSVTQSQGSSSQSQGISSSSTSTMPNSSQSSHSSSGTLSSLETVSTQELYSIPEDQEPEDQEPEEPTPAPWARLWALQDGFANLECVNDNYWFGRDKSCEYCFDEPLLKRTDKYRTYSKKHFRIFREVGPKNSYIAYIEDHSGNGTFVNTELVGKGKRRPLNNNSEIALSLSRNKVFVFFDLTVDDQSVYPKALRDEYIMSKT",binding result,[1],no binding
same,binding result,[2],no binding
